Source: PMC7480041 (bioRxiv, 2020)
Residue numbers refer to the chain shown, from its start.

T1: recombinant HuCoV-NL63 N protein (100–377) (HuCoV-NL63, UniProt Q6Q1R8 100-377)
T1 sequence: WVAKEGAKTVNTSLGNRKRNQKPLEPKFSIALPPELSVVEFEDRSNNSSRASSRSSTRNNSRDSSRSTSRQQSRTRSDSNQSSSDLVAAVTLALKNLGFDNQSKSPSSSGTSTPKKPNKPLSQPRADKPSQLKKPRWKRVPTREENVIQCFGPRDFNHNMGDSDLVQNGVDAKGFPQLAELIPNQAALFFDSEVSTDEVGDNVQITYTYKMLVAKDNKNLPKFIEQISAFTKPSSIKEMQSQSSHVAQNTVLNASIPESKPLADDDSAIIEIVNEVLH

B1: mBG67 (antibody, V domains shown)
VH: EVQLVESGGGLVQPGGSLKLSCAASGFTFSNYGMSWVRQTPDKRLELVATINRNGGSTYYLDSVKVRFTISRDNAKSTLFLQLSSLKSDDTAMYYCARIYDFDEDYFDVWGAGTTVTVSS
VL: QIVLTQSPAIMSASLGERVTMTCTASSSVSSSYLHWYQQKPGSSPKLWIYSTSNLASGVPARFSGSGSGTSYSLTISSMEAEDAATYYCLQYHRSPWTFGGGTKLEIK
B2: mBG17 (antibody, V domains shown)
VH: EVKLEESGGGLVQPGGSMKFSCVASGFTFSDYWMNWVRQSPDKGLEWVAEIRLKSNNYATHYAASVKGRFTISRDDSKSSVYLQMNNLRAEDSGIYYCTRSAMDYWGQGTSVTVSS
VL: DIVMSQSPSSLAVSVGEKITMSCKSSQSLLYTSDQKNYLAWFQQKPGQSPKLLIFWASTRDSGVPDRFTGSGSGTDFTLTISSVKAEDLAVYYCQQFYNYPRTFGGGTKLEIK
B3: mBG21 (antibody, V domains shown)
VH: QIQLVQSGPELKKPGETVKISCKASGYTFTDYSMHWVKQAPGKGSKWMGWINTETGEPTYADDFKGRFAFSLETSASTAYLQINNLKNEDTATYFCALRRWGQGTLVTVSS
VL: IVMTQTPKFLLVSAGDRVTITCKASQSVSNDVAWFQQKPGQSPKKLLIYFASNRYTGVPDRFTGSGYGTDFTFTITTVQAEDLAVYFCQQDYSSPWTFGGGTKLEIK
B4: mBG22 (antibody, V domains shown)
VH: B3 VH with S111A
VL: IVMTQTPKFLLVSAGDRVTITCKASQSVSNDVAWFQQKPGQSPKLLIYFASNRYTGVPDRFTGSGYGTDFTFTITTVQAEDLAVYFCQQDYSSPWTFGGGTKLEIK

Experiments:
Assay in all cases: ELISA
[1] = target: recombinant SARS-CoV N protein (133–422) (SARS-CoV, UniProt P59595 133-422)
[2] = target: T1, recombinant HuCoV-NL63 N protein …
[3] = target: recombinant SARS-CoV N protein (133–422) (SARS-CoV, UniProt P59595)
[4] = target: recombinant HuCoV-NL63 N protein (100–377) (HuCoV-NL63, UniProt Q6Q1R8)

Chain of recombinant SARS-CoV N protein (133–422) (SARS-CoV, UniProt P59595 133-422) (P59595 133-422): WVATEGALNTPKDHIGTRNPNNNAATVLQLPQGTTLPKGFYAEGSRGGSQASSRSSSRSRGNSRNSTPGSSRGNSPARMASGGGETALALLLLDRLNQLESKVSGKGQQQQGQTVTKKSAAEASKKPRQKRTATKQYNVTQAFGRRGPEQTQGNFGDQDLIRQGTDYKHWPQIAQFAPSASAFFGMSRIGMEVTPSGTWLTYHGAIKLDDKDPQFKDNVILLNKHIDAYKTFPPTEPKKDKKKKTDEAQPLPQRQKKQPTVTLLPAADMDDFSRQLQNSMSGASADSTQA
Chain of recombinant SARS-CoV N protein (133–422) (SARS-CoV, UniProt P59595) (P59595 133-422): as above

| Binder | corrected average ELISA signal [1] | corrected average ELISA signal [2] | corrected average ELISA signal [3] | corrected average ELISA signal [4] |
| --- | --- | --- | --- | --- |
| B1 | 0.39 |  |  |  |
| B2 | 1.39 | 0.54 |  |  |
| B3 |  |  | 1.49 | 0.47 |
| B4 | 0.76 | 0.51 |  |  |
